Experimental findings from patent US20140223606, “COMPOSITIONS AND METHODS COMPRISING SEQUENCES HAVING MEGANUCLEASE ACTIVITY” (PIONEER HI BRED INTERNATIONAL INC, published 2014) are described below.

For one data set, the target named is T1, MHP14+(08) (artificial).
T1 chain: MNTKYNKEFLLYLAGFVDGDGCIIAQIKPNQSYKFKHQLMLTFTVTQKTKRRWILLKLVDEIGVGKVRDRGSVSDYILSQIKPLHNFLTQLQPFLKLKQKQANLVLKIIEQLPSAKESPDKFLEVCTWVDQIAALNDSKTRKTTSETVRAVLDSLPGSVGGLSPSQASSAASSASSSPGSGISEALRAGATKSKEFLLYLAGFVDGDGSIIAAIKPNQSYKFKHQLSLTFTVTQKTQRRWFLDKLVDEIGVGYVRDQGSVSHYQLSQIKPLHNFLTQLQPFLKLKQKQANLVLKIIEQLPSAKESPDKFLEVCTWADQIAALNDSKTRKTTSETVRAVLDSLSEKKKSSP
Put plainly: cell_activity; maize; yeast 37 C: 4. Particulars: tags: SV40 NLS.

Another data set addresses T2, MHP14+(12) (artificial).
T2 chain: T1 chain with F16I, C22S, I54F, L56D, N103V, I132V, D153M, K244E, F281Y, A316V
Put plainly: cell_activity; maize; yeast 37 C: 4. Particulars: tags: SV40 NLS.

The next data set has as its target T3, MHP14+(06) (artificial).
T3 chain: T1 chain with C22S, K50R, I54F, I81K, K121G, K244E, F281Y, A316V, I319V
Put plainly: cell_activity; maize; yeast 37 C: 4. As to conditions: tags: SV40 NLS.

For another data set, the target named is T4, MHP14+(14) (artificial).
T4 chain: T1 chain with C22S, K50R, I54F, L56D, G258S, K308G
The data set is described as follows: cell_activity; maize; yeast 37 C: 4. As to conditions: tags: SV40 NLS.

The next data set deals with T5, ZM6.3(G4) (artificial).
T5 chain: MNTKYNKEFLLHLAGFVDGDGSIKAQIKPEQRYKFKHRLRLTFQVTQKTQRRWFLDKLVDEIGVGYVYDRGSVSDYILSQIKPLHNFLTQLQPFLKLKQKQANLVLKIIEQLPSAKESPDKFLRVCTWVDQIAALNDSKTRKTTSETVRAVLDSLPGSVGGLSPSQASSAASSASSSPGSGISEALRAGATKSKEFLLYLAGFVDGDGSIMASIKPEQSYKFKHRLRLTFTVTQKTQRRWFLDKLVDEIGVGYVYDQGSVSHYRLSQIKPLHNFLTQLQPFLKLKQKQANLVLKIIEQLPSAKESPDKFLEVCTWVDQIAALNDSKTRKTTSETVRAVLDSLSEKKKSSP
The data set is described as follows: cell_activity; yeast 37 C; 28 C: 2. Particulars: tags: NLS, 6xHis. How it is done:
A 3 mL culture of selective media (MP Biomedical) was inoculated with a single colony of the yeast screening strain and grown at 30° C. overnight. On the following day, a 50 ml YPD culture (MP Biomedical) was started with 2 ml of the overnight culture and grown at 30° C. overnight. On the following day, the cells were harvested by centrifugation at 4000 rpm. The cells were resuspended in 100 ml ice cold water and centrifuged again. The cells were then washed in 1.2 M sorbitol, followed by treatment with 2 ml of 10 mM Tris pH 8.0, 1 mM EDTA, 100 mM Lithium acetate, 10 mM DTT, 0.6M sorbitol for 30 minutes at 30° C. with shaking. The cells were recovered by centrifugation, washed in 40 ml 1.2M sorbitol and finally resuspended in 250 microliters of 1.2M sorbitol. 50 microliter aliquots were transferred to test tubes on ice. Up to 5 microliters of DNA (100-500 nanograms) were added. The suspension was transferred to a 0.2 cm electroporation cuvette, on ice. Electroporation was performed with a pulse charge at 1.5 kV, 200 ohms, 25 microF (pulse time of 5 milliseconds). 1 mL YPD media (MP Biomedical) was added and the cells were allowed to recover at 30° C. for 1-2 hr. The cells were centrifuged, resuspended in 100 uL 1M sorbitol and plated on selective media lacking leucine and containing 2% galactose. The resulting yeast colonies were incubated at various temperatures ranging from 22 to 37 degrees Celsius for 7-10 days. I-CreI and meganucleases derived from it have maximal activity at or above 37 degrees Celsius. Screening was performed at a range of temperatures from 22 to 37 degrees in order to observe increases in activity at lower temperatures which are relevant to certain biological systems (eg. plant cells, plant cell cultures, etc). At that time the red/white sectoring phenotype, indicative of meganuclease activity was observed. Colonies with increased white sectoring over the parental meganuclease (indicating colonies expressing a meganuclease with increased meganuclease activity), also referred to as “hits” and sometimes completely white, were isolated for further analysis.
A total of 15 Zm6.3 variants with increased activity were confirmed in the yeast system (as described in Example 6). Increased activity was observed across a range of temperatures: 28 degrees Celsius, 30 degrees Celsius and 37 degrees Celsius, as shown in Table 15.

Where a chain is given by its changes, count along the chain named.

B1: MHP14 recognition site (dsDNA)
DNA 1: CAAACAGATTCACGTCAGATTT
DNA 2: AAATCTGACGTGAATCTGTTTG
B1: the activity with MHP14+(08) was 25 % target site mutation rate; with MHP14+(12), 47 % target site mutation rate; in the data set with MHP14+(06) it was 7 % target site mutation rate; in the data set with MHP14+(14), 39 % target site mutation rate.

B2: ZM6.3 recognition site (dsDNA)
DNA 1: CAGGCTCTCGTAAATGCGCCTG
DNA 2: CAGGCGCATTTACGAGAGCCTG
As for B2, the activity with ZM6.3(G4) was found to be 4 score 0-4.
